Test results reported in publication PMC11239689.

Biological target: Toll-like receptor 2 (TLR2), endogenous in HT29 cells (human (endogenous in HT29)) (UniProt O60603)
Chain of UniProt O60603 (O60603 21-784): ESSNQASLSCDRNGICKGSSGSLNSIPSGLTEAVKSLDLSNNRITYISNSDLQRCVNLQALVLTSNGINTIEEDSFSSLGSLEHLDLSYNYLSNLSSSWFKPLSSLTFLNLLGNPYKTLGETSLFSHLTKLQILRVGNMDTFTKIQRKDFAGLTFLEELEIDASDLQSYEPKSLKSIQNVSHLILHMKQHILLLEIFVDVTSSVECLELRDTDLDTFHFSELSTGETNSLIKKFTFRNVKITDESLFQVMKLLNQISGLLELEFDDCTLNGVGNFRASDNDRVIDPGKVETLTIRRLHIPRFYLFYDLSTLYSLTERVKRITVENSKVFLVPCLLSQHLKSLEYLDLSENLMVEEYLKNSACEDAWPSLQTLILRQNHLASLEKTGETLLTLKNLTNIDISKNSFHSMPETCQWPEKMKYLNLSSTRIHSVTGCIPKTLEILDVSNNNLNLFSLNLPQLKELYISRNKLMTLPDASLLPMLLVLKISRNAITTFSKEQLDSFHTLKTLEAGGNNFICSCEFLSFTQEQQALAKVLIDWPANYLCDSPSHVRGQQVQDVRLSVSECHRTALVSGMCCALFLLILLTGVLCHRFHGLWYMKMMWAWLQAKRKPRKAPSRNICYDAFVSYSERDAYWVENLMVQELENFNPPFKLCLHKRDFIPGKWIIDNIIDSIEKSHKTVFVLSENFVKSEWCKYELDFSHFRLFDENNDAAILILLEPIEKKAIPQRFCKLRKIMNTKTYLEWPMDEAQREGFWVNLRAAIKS

GbpA domain 4, purified recombinant (domain or fragment)
IL-8 secreted by HT29 cells treated with 250 ng GbpA 4 for 8 h (sandwich ELISA): 443 pg/mL
